Test results: paper PMC4224607 (Chemical communications (Cambridge, England), 2014)
Non-standard residues stand in square brackets, D forms with d. No end group written: not given here.

Target: human carbonic anhydrase II (human, UniProt P00918 1-260)
Experiment: SPR

B1: fplsk (peptide)
peptide: [dF][dP][dL][dS][dK]
B1 showed a Kd of 5.8 µM.
